In IntAct's records for PubMed 31515488:

B1: Homeobox protein VENTX (Homo sapiens), O95231 (parent)
chain: MRLSSSPPRGPQQLSSFGSVDWLSQSSCSGPTHTPRPADFSLGSLPGPGQTSGAREPPQAVSIKEAAGSSNLPAPERTMAGLSKEPNTLRAPRVRTAFTMEQVRTLEGVFQHHQYLSPLERKRLAREMQLSEVQIKTWFQNRRMKHKRQMQDPQLHSPFSGSLHAPPAFYSTSSGLANGLQLLCPWAPLSGPQALMLPPGSFWGLCQVAQEALASAGASCCGQPLASHPPTPGRPSLGPALSTGPRGLCAMPQTGDAF
B2: Phenazine biosynthesis-like domain-containing protein (Homo sapiens), P30039 (parent)
chain: MKLPIFIADAFTARAFRGNPAAVCLLENELDEDMHQKIAREMNLSETAFIRKLHPTDNFAQSSCFGLRWFTPASEVPLCGHATLASAAVLFHKIKNMNSTLTFVTLSGELRARRAEDGIVLDLPLYPAHPQDFHEVEDLIKTAIGNTLVQDICYSPDTQKLLVRLSDVYNRSFLENLKVNTENLLQVENTGKVKGLILTLKGEPGGQTQAFDFYSRYFAPWVGVAEDPVTGSAHAVLSSYWSQHLGKKEMHAFQCSHRGGELGISLRPDGRVDIRGGAAVVLEGTLTA
partner: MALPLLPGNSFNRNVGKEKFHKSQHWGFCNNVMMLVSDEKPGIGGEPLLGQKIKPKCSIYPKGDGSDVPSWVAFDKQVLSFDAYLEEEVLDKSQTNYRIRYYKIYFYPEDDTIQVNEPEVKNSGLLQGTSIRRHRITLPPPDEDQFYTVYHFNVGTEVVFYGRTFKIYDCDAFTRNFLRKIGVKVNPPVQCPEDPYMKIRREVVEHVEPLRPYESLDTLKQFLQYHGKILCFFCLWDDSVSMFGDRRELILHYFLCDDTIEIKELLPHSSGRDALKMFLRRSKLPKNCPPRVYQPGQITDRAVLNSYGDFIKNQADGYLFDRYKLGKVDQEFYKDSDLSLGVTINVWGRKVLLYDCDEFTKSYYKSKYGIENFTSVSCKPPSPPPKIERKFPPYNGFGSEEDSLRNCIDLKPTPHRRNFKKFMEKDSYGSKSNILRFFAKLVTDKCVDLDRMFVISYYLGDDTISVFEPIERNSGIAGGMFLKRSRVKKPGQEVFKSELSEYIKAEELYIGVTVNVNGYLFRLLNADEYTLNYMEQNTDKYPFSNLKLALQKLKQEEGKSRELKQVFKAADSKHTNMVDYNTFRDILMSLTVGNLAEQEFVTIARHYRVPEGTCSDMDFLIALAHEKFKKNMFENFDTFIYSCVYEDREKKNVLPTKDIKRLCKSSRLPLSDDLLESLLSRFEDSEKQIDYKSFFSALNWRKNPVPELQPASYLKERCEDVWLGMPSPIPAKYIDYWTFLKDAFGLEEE
B3: Phosphoserine phosphatase (Homo sapiens), P78330 (parent)
chain: MVSHSELRKLFYSADAVCFDVDSTVIREEGIDELAKICGVEDAVSEMTRRAMGGAVPFKAALTERLALIQPSREQVQRLIAEQPPHLTPGIRELVSRLQERNVQVFLISGGFRSIVEHVASKLNIPATNVFANRLKFYFNGEYAGFDETQPTAESGGKGKVIKLLKEKFHFKKIIMIGDGATDMEACPPADAFIGFGGNVIRQQVKDNAKWYITDFVELLGELEE
partner: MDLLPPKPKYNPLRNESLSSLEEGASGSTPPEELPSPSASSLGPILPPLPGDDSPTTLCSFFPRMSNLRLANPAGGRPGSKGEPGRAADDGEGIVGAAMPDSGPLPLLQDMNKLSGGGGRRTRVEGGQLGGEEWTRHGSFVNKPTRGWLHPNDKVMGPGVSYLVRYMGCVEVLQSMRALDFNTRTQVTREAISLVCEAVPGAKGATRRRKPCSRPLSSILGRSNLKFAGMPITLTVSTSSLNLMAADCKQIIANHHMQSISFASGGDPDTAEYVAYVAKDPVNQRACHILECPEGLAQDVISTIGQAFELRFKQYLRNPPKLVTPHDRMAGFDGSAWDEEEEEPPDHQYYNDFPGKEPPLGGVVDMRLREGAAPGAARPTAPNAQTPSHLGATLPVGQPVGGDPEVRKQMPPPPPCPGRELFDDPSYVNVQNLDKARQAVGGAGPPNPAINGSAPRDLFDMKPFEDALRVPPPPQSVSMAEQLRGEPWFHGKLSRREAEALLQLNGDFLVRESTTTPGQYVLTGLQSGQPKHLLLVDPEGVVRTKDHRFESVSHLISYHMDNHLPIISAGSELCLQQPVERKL
B4: Myogenin (Homo sapiens), P15173 (parent)
chain: MELYETSPYFYQEPRFYDGENYLPVHLQGFEPPGYERTELTLSPEAPGPLEDKGLGTPEHCPGQCLPWACKVCKRKSVSVDRRRAATLREKRRLKKVNEAFEALKRSTLLNPNQRLPKVEILRSAIQYIERLQALLSSLNQEERDLRYRGGGGPQPGVPSECSSHSASCSPEWGSALEFSANPGDHLLTADPTDAHNLHSLTSIVDSITVEDVSVAFPDETMPN
partner: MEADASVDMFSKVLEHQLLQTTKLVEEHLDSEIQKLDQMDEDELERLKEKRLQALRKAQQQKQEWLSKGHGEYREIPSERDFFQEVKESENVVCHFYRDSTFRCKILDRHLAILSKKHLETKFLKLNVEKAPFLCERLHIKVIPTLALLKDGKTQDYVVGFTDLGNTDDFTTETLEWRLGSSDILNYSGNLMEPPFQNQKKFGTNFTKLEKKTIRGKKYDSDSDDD
B5: Microtubule-associated tumor suppressor candidate 2 (Homo sapiens), Q5JR59-3 (parent)
chain: MGHCCCKPYNCLQCLDKTNESALVKEKELSIELANIRDEVAFHTAKCEKLQKEKEELERRFEDEVKRLGWQQQAELQELEERLQLQFEAEMARLQEEHGDQLLSIRCQHQEQVEDLTASHDAALLEMENNHTVAITILQDDHDHKVQELMSTHELEKKELEENFEKLRLSLQDQVDTLTFQSQSLRDRARRFEEALRKNTEEQLEIALAPYQHLEEDMKSLKQVLEMKNQQIHEQEKKILELEKLAEKNIILEEKIQVLQQQNEDLKARIDQNTVVTRQLSEENANLQEYVEKETQEKKRLSRTNEELLWKLQTGDPTSPIKLSPTSPVYRGSSSGPSSPARVSTTPR
partner: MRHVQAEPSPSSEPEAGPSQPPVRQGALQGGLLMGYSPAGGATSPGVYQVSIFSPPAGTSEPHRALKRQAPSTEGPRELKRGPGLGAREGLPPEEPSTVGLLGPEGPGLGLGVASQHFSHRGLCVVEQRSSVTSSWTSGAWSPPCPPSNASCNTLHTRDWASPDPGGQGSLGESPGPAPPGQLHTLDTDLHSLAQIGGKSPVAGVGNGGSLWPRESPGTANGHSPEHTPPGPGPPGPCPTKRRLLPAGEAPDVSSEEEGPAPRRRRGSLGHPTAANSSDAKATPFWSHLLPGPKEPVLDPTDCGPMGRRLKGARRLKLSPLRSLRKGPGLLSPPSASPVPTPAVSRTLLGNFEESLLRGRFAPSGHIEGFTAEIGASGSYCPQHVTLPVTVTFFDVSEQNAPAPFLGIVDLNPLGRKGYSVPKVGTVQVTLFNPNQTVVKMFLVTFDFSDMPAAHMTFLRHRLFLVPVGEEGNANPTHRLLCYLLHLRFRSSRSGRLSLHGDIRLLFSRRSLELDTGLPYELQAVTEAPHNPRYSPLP
B6: Zinc finger protein 544 (Homo sapiens), Q6NX49 (parent)
chain: MEARSMLVPPQASVCFEDVAMAFTQEEWEQLDLAQRTLYREVTLETWEHIVSLGLFLSKSDVISQLEQEEDLCRAEQEAPRDWKATLEENRLNSEKDRAREELSHHVEVYRSGPEEPPSLVLGKVQDQSNQLREHQENSLRFMVLTSERLFAQREHCELELGGGYSLPSTLSLLPTTLPTSTGFPKPNSQVKELKQNSAFINHEKNGADGKHCESHQCARAFCQSIYLSKLGNVETGKKNPYEYIVSGDSLNYGSSLCFHGRTFSVKKSDDCKDYGNLFSHSVSLNEQKPVHFGKSQYECDECRETCSESLCLVQTERSGPGETPFRCEERCAAFPMASSFSDCNIIQTTEKPSVCNQCGKSFSCCKLIHQRTHTGEKPFECTQCGKSFSQSYDLVIHQRTHTGEKPYECDLCGKSFTQRSKLITHQRIHTGEKPYQCIECRKSFRWNSNLIVHQRIHTGEKPYECTHCGKSFSQSYELVTHKRTHTGEKPFKCTQCGKSFSQKYDLVVHQRTHTGEKPYECNLCGKSFSQSSKLITHQRIHTGEKPYQCIECGKSFRWNSNLVIHQRIHTGEKPYDCTHCGKSFSQSYQLVAHKRTHTGEKPYECNECGKAFNRSTQLIRHLQIHTGEKPYKCNQCNKAFARSSYLVMHQRTHTGEKPFECSQCGKAFSGSSNLLSHHRIHSGEKPYECSDCGKSFRQQSQLVVHRRTHTGEKP
B7: Keratin, type I cytoskeletal 13 (Homo sapiens), P13646 (parent)
chain: MSLRLQSSSASYGGGFGGGSCQLGGGRGVSTCSTRFVSGGSAGGYGGGVSCGFGGGAGSGFGGGYGGGLGGGYGGGLGGGFGGGFAGGFVDFGACDGGLLTGNEKITMQNLNDRLASYLEKVRALEEANADLEVKIRDWHLKQSPASPERDYSPYYKTIEELRDKILTATIENNRVILEIDNARLAADDFRLKYENELALRQSVEADINGLRRVLDELTLSKTDLEMQIESLNEELAYMKKNHEEEMKEFSNQVVGQVNVEMDATPGIDLTRVLAEMREQYEAMAERNRRDAEEWFHTKSAELNKEVSTNTAMIQTSKTEITELRRTLQGLEIELQSQLSMKAGLENTVAETECRYALQLQQIQGLISSIEAQLSELRSEMECQNQEYKMLLDIKTRLEQEIATYRSLLEGQDAKMIGFPSSAGSVSPRSTSVTTTSSASVTTTSNASGRRTSDVRRP
partner: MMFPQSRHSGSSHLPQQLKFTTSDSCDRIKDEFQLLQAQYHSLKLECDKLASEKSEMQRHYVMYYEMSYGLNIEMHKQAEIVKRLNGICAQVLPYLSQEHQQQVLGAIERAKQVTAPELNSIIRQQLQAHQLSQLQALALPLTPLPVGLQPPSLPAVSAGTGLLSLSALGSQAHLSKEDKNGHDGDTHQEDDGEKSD

Variants of: B1
Details: with rbpms_human RBPMS

Variant | effect of a mutation on the interaction
L42P | with no effect

Variants of: B2
Details: with efhc2_human EFHC2, Q5JST6

Variant | effect of a mutation on the interaction
H257R | disrupting interaction strength
A235T | disrupting interaction strength
Y154C | disrupting interaction strength

Variants of: B3
Details: with shc1_human SHC1, P29353

Variant | effect of a mutation on the interaction
T152I | with no effect
T149M | with no effect

Variants of: B4
Details: with txnd9_human TXNDC9, O14530

Variant | effect of a mutation on the interaction
A181T | disrupting interaction strength
P49H | with no effect

Variants of: B5
Details: with atosb_human ATOSB

Variant | effect of a mutation on the interaction
A89V | with no effect

Variants of: B6
Details: with traf2_human TRAF2, Q12933
traf2_human TRAF2, Q12933, sequence (Q12933 whole entry): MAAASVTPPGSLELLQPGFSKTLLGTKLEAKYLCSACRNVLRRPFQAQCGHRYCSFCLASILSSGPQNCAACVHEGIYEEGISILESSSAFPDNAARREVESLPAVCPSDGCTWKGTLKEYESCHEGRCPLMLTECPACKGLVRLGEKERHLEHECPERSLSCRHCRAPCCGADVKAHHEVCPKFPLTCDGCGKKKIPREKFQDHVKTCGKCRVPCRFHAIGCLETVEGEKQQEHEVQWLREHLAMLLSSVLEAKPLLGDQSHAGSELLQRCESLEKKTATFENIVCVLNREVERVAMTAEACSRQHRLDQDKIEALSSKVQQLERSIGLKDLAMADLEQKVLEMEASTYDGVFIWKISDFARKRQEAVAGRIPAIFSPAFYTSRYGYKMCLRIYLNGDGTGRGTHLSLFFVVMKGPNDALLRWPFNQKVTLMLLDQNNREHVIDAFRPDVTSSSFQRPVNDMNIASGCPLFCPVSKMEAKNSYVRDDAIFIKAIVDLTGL

Variant | effect of a mutation on the interaction
K406M | disrupting interaction strength

Variants of: B7
Details: with tle5_human TLE5, Q08117

Variant | effect of a mutation on the interaction
R355H | with no effect
